Where two headings read alike, the source gives them in different places. Each block holds one molecule with its values, some of them ahead of it.
Key:
Human TGFβ1 (human) [1] = biological target: Human TGFβ1 (human) (UniProt P01137); test: SPR (Biacore), apparent KD, 105 RU TGFβ1 immobilized on the chip
Human TGFβ1 (human) [2] = biological target: Human TGFβ1 (human) (UniProt P01137); test: SPR (Biacore), apparent KD, 544 RU TGFβ1 immobilized on the chip
Human TGFβ1 (human) [3] = biological target: Human TGFβ1 (human) (UniProt P01137); test: SPR (Biacore), apparent KD, 24 RU TGFβ1 immobilized on the chip
Human TGFβ1 [4] = biological target: T1, Human TGFβ1 (human, UniProt P01137 279-390)
T1 sequence (P01137 279-390 limits assumed): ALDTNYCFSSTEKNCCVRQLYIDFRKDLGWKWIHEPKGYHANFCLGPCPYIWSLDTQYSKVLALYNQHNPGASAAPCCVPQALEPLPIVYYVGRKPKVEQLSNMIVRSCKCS

Human TGFβ1 [5] = biological target: T1, Human TGFβ1; test: SPR (Biacore), apparent KD, 24 RU TGFβ1 immobilized on the chip
Human TGFβ1 [6] = biological target: T1, Human TGFβ1; test: cell-based or functional assay
Human TGFβ1 [7] = biological target: T1, Human TGFβ1; test: SPR (Biacore), apparent KD, 544 RU TGFβ1 immobilized on the chip
Human TGFβ1 [8] = biological target: T1, Human TGFβ1; test: SPR (Biacore), apparent KD, 105 RU TGFβ1 immobilized on the chip
Human TGFβ1 [9] = biological target: T1, Human TGFβ1; test: SPR

Sequence of Human TGFβ1 (human) (P01137 279-390 limits assumed): as above

Molecule: scFv CAT191 diabody (scFv diabody 5aa)
Kd (Human TGFβ1 (human) [1]): 3.9 nM | Kd (Human TGFβ1 (human) [2]): 4.8 nM | Kd (Human TGFβ1 (human) [3]): 4.1 nM

Molecule: GC1008 (antibody)
IC50 (read off the curve), TGFβ1-stimulated IL-11 production (A549 bioassay) (Human TGFβ1 [4]): 0.01 nM

The next lines start with the values.

Kd (Human TGFβ1 [5]): 1.7 nM | IC50 (read off the curve), TGFβ1-stimulated IL-11 production (A549 bioassay) (Human TGFβ1 [6]): ~0.4 nM | Kd (Human TGFβ1 [7]): 1.3 nM | Kd (Human TGFβ1 [8]): 1.6 nM
B1: CAT191(scFv) (scFv)
scFv: EVQLVESGGGVVQPGRSLRLSCAASGFTFSSYGMHWVRQAPGKELEWVAVISYDGSIKYYADSVKGRFTISRDNSKNTLYLQMNSLRAEDTAVYYCARTGEYSGYDTDPQYSWGQGTTVTVSSSGGGSGGGGSGGGGSEIVLTQSPSSLSASVGDRVTITCRSSQGIGDDLGWYQQKPGKAPILLIYGTSTLQSGVPSRFSGSGSGTDFTLTINSLQPEDFATYYCLQDSNYPLTFGGGTRLEIK
notes: Parental scFv; also called scFv(CAT191)

binding result (Human TGFβ1 [9]): binds
B2: Leucine zipper peptide-derived dimer (other)
scFv: EVQLVESGGGVVQPGRSLRLSCAASGFTFSSYGMHWVRQAPGKELEWVAVISYDGSIKYYADSVKGRFTISRDNSKNTLYLQMNSLRAEDTAVYYCARTGEYSGYDTDPQYSWGQGTTVTVSSSGGGSGGGGSGGGGSEIVLTQSPSSLSASVGDRVTITCRSSQGIGDDLGWYQQKPGKAPILLIYGTSTLQSGVPSRFSGSGSGTDFTLTINSLQPEDFATYYCLQDSNYPLTFGGGTRLEIKRAAAHHHHHHGAAEQKLISEEDLNGAAPKPSTPPGSSGELEELLKHLKELLKGPRKGELEELLKHLKELLKGGAPGGHHHHHH
notes: CAT191 scFv fused to tags and a leucine zipper peptide; Expressed in E. coli and only partially purified when tested
